According to PMC2853223 (ACS chemical biology, 2009):

B2: PikAIV KSdd residues 1-37 (the PikAIV part of P3P4dock) (domain or fragment, UniProt Q9ZGI2 1-37, looked up)
chain: MTSSNEQLVDALRASLKENEELRKESRRRADRRQEPM

Experiments:
[1] = target: B2; assay: crystal structure
[2] = target: the molecule itself; assay: crystal structure
[3] = target: T1, PikAIII ACPdd (N-terminally His-tagged discrete C-terminal docking domain of PikAIII) (UniProt Q9ZGI3 1479-1562); assay: SPR
T1 sequence (looked up): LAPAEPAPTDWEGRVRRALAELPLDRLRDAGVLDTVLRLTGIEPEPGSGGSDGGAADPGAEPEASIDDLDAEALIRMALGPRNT

[4] = target: PikAIV full module (post-translational modification of its ACP domain (grown in BAP1 E. coli cells)); assay: fluorescence polarisation

Q: Does ADPGAEPEASIDDLDAEALIRMALGPRNT (domain or fragment, UniProt Q9ZGI3 1534-1562, looked up) [PikAIII ACPdd residues 1534-1562 (the PikAIII part of P3P4dock)] bind [1]?
A: binds

B1: P3P4dock (amino acids 1534-1562 of PikAIII ACPdd fused to amino acids 1-37 of the KSdd of PikAIV) (other)
chain: SNADPGAEPEASIDDLDAEALIRMALGPRNTMTSSNEQLVDALRASLKENEELRKESRRRADRRQEPM
Q: Does B1 bind [2]?
A: binds

Q: How did the Kd [3] turn out when MTSSNEQLVDALRASLKENEELRKESRRRADRRQEPM (domain or fragment, UniProt Q9ZGI2 1-37, looked up) [PikAIV KSdd (discrete N-terminal docking domain of PikAIV, tagless)] was run?
A: 73 ± 43 µM

Q: What about the koff [3] of the same binder?
A: 0.21 ± 0.03 s⁻¹

Q: What about the kon [3] of the same binder?
A: 3000 ± 1800 M⁻¹ s⁻¹

Q: Does B2 bind [2]?
A: binds

B3: PikAIII ACPdd-FL (PikAIII ACPdd with an added C-terminal cysteine labelled with BODIPY-FL) (domain or fragment)
chain: LAPAEPAPTDWEGRVRRALAELPLDRLRDAGVLDTVLRLTGIEPEPGSGGSDGGAADPGAEPEASIDDLDAEALIRMALGPRNTC
modifications: BODIPY-FL (iodoacetamide) on the added C-terminal cysteine
Q: With B3 as the binder, how does the Kd [4] read?
A: 5 ± 1 µM
